In patent US20250076311A1 (Chugai, published 2025):

What was measured:
[1] = target: T1, human FcγRIIIaV extracellular domain with C-terminal His-tag (human, UniProt P08637 17-208); test: SPR (BIACORE); KD of SG1 / KD of variant
T1 construct: also called human FcgRIIIaV; not shown: His-tag added to the C-terminus

[2] = target: T2, cynomolgus monkey FcγRIIb extracellular domain with C-terminal His-tag (cynomolgus monkey); test: SPR (BIACORE); KD of SG1 / KD of variant
T2 construct: also called cyno FcgRIIb; cynoFcγRIIb; not shown: His-tag added to the C-terminus
T2 chain: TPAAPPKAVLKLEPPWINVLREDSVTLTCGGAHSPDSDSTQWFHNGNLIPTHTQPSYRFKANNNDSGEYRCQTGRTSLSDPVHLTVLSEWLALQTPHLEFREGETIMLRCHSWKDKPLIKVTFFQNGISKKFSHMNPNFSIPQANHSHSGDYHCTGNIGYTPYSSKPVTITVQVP

[3] = target: T3, human FcγRIIb extracellular domain with C-terminal His-tag (human, UniProt P31994 43-217); test: SPR (BIACORE); KD of SG1 / KD of variant
T3 construct: also called human FcgRIIb; not shown: His-tag added to the C-terminus
T3 sequence: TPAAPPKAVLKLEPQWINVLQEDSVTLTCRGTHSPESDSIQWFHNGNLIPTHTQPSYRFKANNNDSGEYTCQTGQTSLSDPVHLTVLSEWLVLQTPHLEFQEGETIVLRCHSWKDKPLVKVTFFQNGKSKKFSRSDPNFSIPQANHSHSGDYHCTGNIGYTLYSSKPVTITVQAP

[4] = target: T4, cynomolgus monkey FcγRIIIaS extracellular domain with C-terminal His-tag (cynomolgus monkey, UniProt A3RFZ7 21-206 (rhesus entry)); test: SPR (BIACORE); KD of SG1 / KD of variant
T4 construct: also called cyno FcgRIIIaS; cynoFcγRIIIaS; not shown: His-tag added to the C-terminus

[5] = target: T5, cynomolgus monkey FcγRIIa3 extracellular domain with C-terminal His-tag (cynomolgus monkey); test: SPR (BIACORE); KD of SG1 / KD of variant
T5 construct: also called cyno FcgRIIa3; cynoFcγRIIa3; not shown: His-tag added to the C-terminus
T5 chain: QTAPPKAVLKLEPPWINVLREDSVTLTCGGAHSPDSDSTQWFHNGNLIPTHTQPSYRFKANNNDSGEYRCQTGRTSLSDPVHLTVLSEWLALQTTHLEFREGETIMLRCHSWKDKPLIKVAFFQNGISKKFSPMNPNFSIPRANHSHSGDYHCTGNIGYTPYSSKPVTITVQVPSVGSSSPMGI

[6] = target: T6, human FcγRIIaR extracellular domain with C-terminal His-tag (human, UniProt P12318 34-217); test: SPR (BIACORE); KD of SG1 / KD of variant
T6 construct: also called human FcgRIIaR; FcγRIIa type R; not shown: His-tag added to the C-terminus
T6 chain: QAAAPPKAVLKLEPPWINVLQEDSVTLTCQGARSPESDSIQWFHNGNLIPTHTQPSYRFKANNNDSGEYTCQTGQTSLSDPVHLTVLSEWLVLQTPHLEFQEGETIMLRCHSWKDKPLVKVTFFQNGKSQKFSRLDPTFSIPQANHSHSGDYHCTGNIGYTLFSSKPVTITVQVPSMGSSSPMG

[7] = target: T7, human FcγRIIaH extracellular domain with C-terminal His-tag (human, UniProt P12318 34-217); test: SPR (BIACORE); KD of SG1 / KD of variant
T7 construct: also called human FcgRIIaH; FcγRIIa type H; not shown: His-tag added to the C-terminus
T7 sequence: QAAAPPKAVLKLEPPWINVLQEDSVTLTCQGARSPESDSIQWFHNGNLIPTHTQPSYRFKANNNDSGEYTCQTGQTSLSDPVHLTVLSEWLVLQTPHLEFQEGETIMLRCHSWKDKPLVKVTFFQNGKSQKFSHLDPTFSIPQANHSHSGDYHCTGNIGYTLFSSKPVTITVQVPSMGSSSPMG

[8] = target: T8, cynomolgus monkey FcγRIIa2 extracellular domain with C-terminal His-tag (cynomolgus monkey); test: SPR (BIACORE); KD of SG1 / KD of variant
T8 construct: also called cyno FcgRIIa2; cynoFcγRIIa2; not shown: His-tag added to the C-terminus
T8 chain: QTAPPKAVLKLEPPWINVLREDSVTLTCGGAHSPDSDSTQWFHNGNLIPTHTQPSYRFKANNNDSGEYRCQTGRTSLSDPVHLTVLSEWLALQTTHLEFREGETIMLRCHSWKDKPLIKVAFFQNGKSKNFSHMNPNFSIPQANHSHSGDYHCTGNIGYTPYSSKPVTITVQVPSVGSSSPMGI

[9] = target: T9, cynomolgus monkey FcγRIIa1 extracellular domain with C-terminal His-tag (cynomolgus monkey); test: SPR (BIACORE); KD of SG1 / KD of variant
T9 construct: also called cyno FcgRIIa1; cynoFcγRIIa1; not shown: His-tag added to the C-terminus
T9 chain: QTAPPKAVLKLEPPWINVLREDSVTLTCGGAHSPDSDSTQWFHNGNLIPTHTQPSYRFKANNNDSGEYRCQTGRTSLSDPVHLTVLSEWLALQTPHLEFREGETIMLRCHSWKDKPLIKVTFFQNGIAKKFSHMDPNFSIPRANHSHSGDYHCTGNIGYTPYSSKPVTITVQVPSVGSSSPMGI

[10] = target: T1, human FcγRIIIaV extracellular domain …; test: SPR (BIACORE), antibody captured, FcgR analyte
[11] = target: T2, cynomolgus monkey FcγRIIb extracellular …; test: SPR (BIACORE), antibody captured, FcgR analyte
[12] = target: T3, human FcγRIIb extracellular domain with …; test: SPR (BIACORE), antibody captured, FcgR analyte
[13] = target: T4, cynomolgus monkey FcγRIIIaS …; test: SPR (BIACORE), antibody captured, FcgR analyte
[14] = target: T5, cynomolgus monkey FcγRIIa3 …; test: SPR (BIACORE), antibody captured, FcgR analyte
[15] = target: T6, human FcγRIIaR extracellular domain …; test: SPR (BIACORE), antibody captured, FcgR analyte
[16] = target: T7, human FcγRIIaH extracellular domain …; test: SPR (BIACORE), antibody captured, FcgR analyte
[17] = target: T8, cynomolgus monkey FcγRIIa2 …; test: SPR (BIACORE), antibody captured, FcgR analyte
[18] = target: T9, cynomolgus monkey FcγRIIa1 …; test: SPR (BIACORE), antibody captured, FcgR analyte
[19] = target: T10, human FcγRIIaR extracellular domain, His-tagged (human, UniProt P12318 34-217); test: SPR (BIACORE); KD of SG1 divided by KD of the variant
T10 construct: also called human FcgRIIaR; FcγRIIa (type R); not shown: His-tag added to the C-terminus
T10 chain: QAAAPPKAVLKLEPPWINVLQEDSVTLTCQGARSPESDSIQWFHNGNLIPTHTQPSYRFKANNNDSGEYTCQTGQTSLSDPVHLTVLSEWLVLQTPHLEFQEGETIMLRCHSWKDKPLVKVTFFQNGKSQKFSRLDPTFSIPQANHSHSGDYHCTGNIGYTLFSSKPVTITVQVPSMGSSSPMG
Protocol: (§1) The kinetic analysis of interactions between these antibodies and FcγR was carried out using BIACORE® T200 or BIACORE® 4000 (GE Healthcare). HBS-EP+ (GE Healthcare) was used as the running buffer, and the measurement temperature was set to 25° C. […] After the measurement, the antibody captured on the chip was washed off by allowing reaction with 10 mM glycine-HCl, pH1.5 and 25 mM NaOH so that the chip was regenerated and used repeatedly. The sensorgrams obtained as measurement results were analyzed by the 1:1 Langmuir binding model using the BIACORE® Evaluation Software to calculate the binding rate constant ka (L/mol/s) and dissociation rate constant kd (1/s), and the dissociation constant KD (mol/L) was calculated from these values. […] Regarding such interactions, KD values were calculated using the following 1:1 binding model described in BIACORE® T100 Software Handbook BR1006-48 Edition AE.

[20] = target: T11, cynomolgus monkey FcγRIIa3 extracellular domain, His-tagged (cynomolgus monkey); test: as above
T11 construct: also called cyno FcgRIIa3; cynoFcγRIIa3; not shown: His-tag added to the C-terminus
T11 chain: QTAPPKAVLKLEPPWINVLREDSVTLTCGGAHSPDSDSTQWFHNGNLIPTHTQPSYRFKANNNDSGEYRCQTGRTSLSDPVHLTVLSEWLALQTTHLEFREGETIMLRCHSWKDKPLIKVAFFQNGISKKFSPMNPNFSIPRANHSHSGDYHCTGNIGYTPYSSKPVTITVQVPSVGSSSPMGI
Protocol: as §1

[21] = target: T12, cynomolgus monkey FcγRIIa2 extracellular domain, His-tagged (cynomolgus monkey); test: as above
T12 construct: also called cyno FcgRIIa2; cynoFcγRIIa2; not shown: His-tag added to the C-terminus
T12 chain: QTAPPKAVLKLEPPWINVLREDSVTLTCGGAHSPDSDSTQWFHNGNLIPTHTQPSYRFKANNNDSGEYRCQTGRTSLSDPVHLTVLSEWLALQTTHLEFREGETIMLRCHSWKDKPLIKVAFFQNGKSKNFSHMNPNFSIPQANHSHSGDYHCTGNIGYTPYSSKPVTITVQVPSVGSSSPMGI
Protocol: as §1

[22] = target: T13, cynomolgus monkey FcγRIIIaS extracellular domain, His-tagged (cynomolgus monkey, UniProt A3RFZ7 21-206 (rhesus entry)); test: as above
T13 construct: also called cyno FcgRIIIaS; cynoFcγRIIIaS; not shown: His-tag added to the C-terminus
Protocol: as §1

T4 sequence (A3RFZ7 21-206): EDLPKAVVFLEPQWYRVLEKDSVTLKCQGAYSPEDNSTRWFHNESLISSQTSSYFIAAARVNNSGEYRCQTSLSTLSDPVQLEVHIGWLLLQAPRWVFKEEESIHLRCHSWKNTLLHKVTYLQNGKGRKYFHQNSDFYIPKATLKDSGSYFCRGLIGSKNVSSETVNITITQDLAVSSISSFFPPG
T1 sequence (P08637 17-208 F176V): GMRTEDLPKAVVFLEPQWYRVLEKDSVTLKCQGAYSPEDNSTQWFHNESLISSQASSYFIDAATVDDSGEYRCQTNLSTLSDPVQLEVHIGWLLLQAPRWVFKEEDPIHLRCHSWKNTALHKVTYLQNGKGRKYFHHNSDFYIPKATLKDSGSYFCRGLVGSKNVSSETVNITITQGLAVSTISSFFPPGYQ
T13 sequence (A3RFZ7 21-206): as the sequence (A3RFZ7 21-206) above

B1: M103205H795-MY146/M103202L889-SK1 (antibody, human IgG1, kappa, name in EU numbering)
heavy: QVTLKESGPVLVKPTETLTLTCTVSGIDLSHDDISWVRQAPGKGLEWVGIISYAGSTYYASWAKGRLTISKDTSKNQVVLTMTNMDPVDTATYYCARGVPAYSHGGDLWGQGTLVTVSSASTKGPSVFPLAPSSKSTSGGTAALGCLVKDYFPEPVTVSWNSGALTSGVHTFPAVLQSSGLYSLSSVVTVPSSSLGTQTYICNVNHKPSNTKVDKKVEPKSCDKTHTCPPCPAPELLNGPSVFLFPPKPKDTLMISRTPEVTCVVVDVSEEDPEVKFNWYVDGVEVHNAKTKPREEQYNLTYRVVSVLTVLHQDWLNGKEYKCKVSNKALPAPIEKTISKAKGQPREPQVYTLPPSREEMTKNQVSLTCLVKGFYPSDIAVEWESNGQPENNYKTTPMVLDSDGSFFLYSKLTVDKSRWQQGNVFSCSVMHEALHNHYTQKSLSLSP
light: DIVMTQSPATLSLSPGERATLSCTSSQSVYHANWLSWFQQKPGQPPKLLIYWASTLAYGVPSRFSGSGSGTDFTLTISSLQPEDAATYYCAGGYGGGRYAFGQGTKVEIKRTVAAPSVFIFPPSDEQLKSGTASVVCLLNNFYPREAKVQWKVDNALQSGNSQESVTEQDSKDSTYSLSSTLTLSKADYEKHKVYACEVTHQGLSSPVTKSFNRGEC
notes: Fc variant of MS1032LO06-SG1; positions in EU numbering
KD fold (SG1 = 1) [1]: 0.09 fold | KD fold (SG1 = 1) [2]: 2.1 fold | KD fold (SG1 = 1) [3]: 5.2 fold | KD fold (SG1 = 1) [4]: 0.12 fold | KD fold (SG1 = 1) [5]: 3.5 fold | KD fold (SG1 = 1) [6]: 0.5 fold | KD fold (SG1 = 1) [7]: 0.3 fold | KD fold (SG1 = 1) [8]: 2.8 fold | KD fold (SG1 = 1) [9]: 18.8 fold | Kd [10]: 8800 nM | Kd [11]: 850 nM | Kd [12]: 880 nM | Kd [13]: 3100 nM | Kd [14]: 4800 nM | Kd [15]: 2100 nM | Kd [16]: 2200 nM | Kd [17]: 1800 nM | Kd [18]: 170 nM

B2: M103205H795-MY201/M103202L889-SK1 (antibody, human IgG1, kappa)
heavy: QVTLKESGPVLVKPTETLTLTCTVSGIDLSHDDISWVRQAPGKGLEWVGIISYAGSTYYASWAKGRLTISKDTSKNQVVLTMTNMDPVDTATYYCARGVPAYSHGGDLWGQGTLVTVSSASTKGPSVFPLAPSSKSTSGGTAALGCLVKDYFPEPVTVSWNSGALTSGVHTFPAVLQSSGLYSLSSVVTVPSSSLGTQTYICNVNHKPSNTKVDKKVEPKSCDKTHTCPPCPAPELLNGPSVFLFPPKPKDTLMISRTPEVTCVVVDVSDEDPEVKFNWYVDGVEVHNAKTKPREEQYNSTYRVVSVLTVLHQDWLNGKEYKCKVSNKALPKPIEKTISKAKGQPREPQVYTLPPSREEMTKNQVSLTCLVKGFYPSDIAVEWESNGQPENNYKTTPPVLDSDGSFFLYSKLTVDKSRWQQGNVFSCSVMHEALHNHYTQKSLSLSP
light: DIVMTQSPATLSLSPGERATLSCTSSQSVYHANWLSWFQQKPGQPPKLLIYWASTLAYGVPSRFSGSGSGTDFTLTISSLQPEDAATYYCAGGYGGGRYAFGQGTKVEIKRTVAAPSVFIFPPSDEQLKSGTASVVCLLNNFYPREAKVQWKVDNALQSGNSQESVTEQDSKDSTYSLSSTLTLSKADYEKHKVYACEVTHQGLSSPVTKSFNRGEC
notes: Fc variant of SG1 with G236N/H268D/A330K; also called MS1032LO06-MY201
KD fold (SG1 = 1) [19]: 0.5 fold | KD fold (SG1 = 1) [20]: 4 fold | KD fold (SG1 = 1) [21]: 3.8 fold | KD fold (SG1 = 1) [22]: 0.05 fold
